One test concerns the target PCM1 V1956D LIR peptide. In words: BLI; biotinylated LIR peptide immobilised on streptavidin biosensors (Octet Red 96), ATG8 protein in solution; 25 mM Tris pH 7.5, 150 mM NaCl, 0.5 mM TCEP, 0.1% Tween-20, 1 mg/ml BSA, 25 °C; Kd from response against concentration, Y=Rmax*X/(Kd+X). On the technique in general: Biolayer interferometry detects binding as a change in optical thickness at a sensor tip.

The target in test [1] is PCM1 LIR peptide (biotinylated, BLI). Nature of the test: BLI; biotinylated LIR peptide (50 μg/ml) immobilised on streptavidin biosensor, ATG8 in solution; Octet Red 96; 25 mM Tris pH 7.5, 150 mM NaCl, 0.5 mM TCEP, 0.1% Tween-20, 1 mg/ml BSA; 25 °C; Kd from response against concentration.
Test [2] has as its target ULK1 LIR peptide (biotinylated, BLI) (human). The description is as above.
The target in another test is PCM1 WT LIR peptide. Nature of the test: BLI; biotinylated LIR peptide immobilised on streptavidin biosensors (Octet Red 96), ATG8 protein in solution; 25 mM Tris pH 7.5, 150 mM NaCl, 0.5 mM TCEP, 0.1% Tween-20, 1 mg/ml BSA, 25 °C; Kd from response against concentration, Y=Rmax*X/(Kd+X).
The target of another test is PCM1 K1957I LIR peptide. The test is described as above.
A further test deals with FIP200 T704I LIR peptide. Described as above.
The target of another test is GFP-GABARAP F60L (human) (UniProt O95166). In words: co-IP; GFP-TRAP beads, lysates of HEK293A cells expressing GFP-GABARAP or GFP-LC3B constructs, TNTE buffer, 2 h at 4 °C; immunoblot of endogenous proteins, quantified. A general note: In western blotting, separated proteins are transferred to a membrane and probed.
Test [3] addresses -L1 (recombinant, BLI) (human) (UniProt Q9H0R8). Nature of the test: BLI.
Another test concerns the target LC3B (Homo sapiens) (UniProt Q9GZQ8). Nature of the test: ITC. The settings on record: cited from earlier work.

Sequence of GABARAP-L1 (recombinant, BLI) (Q9H0R8 whole entry): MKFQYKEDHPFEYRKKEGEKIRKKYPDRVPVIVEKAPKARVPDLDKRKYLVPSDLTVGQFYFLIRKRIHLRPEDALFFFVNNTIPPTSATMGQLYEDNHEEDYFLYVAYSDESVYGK
Sequence of PCM1 LIR peptide mutated at P1962 (X7) (BLI) (Q15154 whole entry, looked up, change not shown, tested part not stated): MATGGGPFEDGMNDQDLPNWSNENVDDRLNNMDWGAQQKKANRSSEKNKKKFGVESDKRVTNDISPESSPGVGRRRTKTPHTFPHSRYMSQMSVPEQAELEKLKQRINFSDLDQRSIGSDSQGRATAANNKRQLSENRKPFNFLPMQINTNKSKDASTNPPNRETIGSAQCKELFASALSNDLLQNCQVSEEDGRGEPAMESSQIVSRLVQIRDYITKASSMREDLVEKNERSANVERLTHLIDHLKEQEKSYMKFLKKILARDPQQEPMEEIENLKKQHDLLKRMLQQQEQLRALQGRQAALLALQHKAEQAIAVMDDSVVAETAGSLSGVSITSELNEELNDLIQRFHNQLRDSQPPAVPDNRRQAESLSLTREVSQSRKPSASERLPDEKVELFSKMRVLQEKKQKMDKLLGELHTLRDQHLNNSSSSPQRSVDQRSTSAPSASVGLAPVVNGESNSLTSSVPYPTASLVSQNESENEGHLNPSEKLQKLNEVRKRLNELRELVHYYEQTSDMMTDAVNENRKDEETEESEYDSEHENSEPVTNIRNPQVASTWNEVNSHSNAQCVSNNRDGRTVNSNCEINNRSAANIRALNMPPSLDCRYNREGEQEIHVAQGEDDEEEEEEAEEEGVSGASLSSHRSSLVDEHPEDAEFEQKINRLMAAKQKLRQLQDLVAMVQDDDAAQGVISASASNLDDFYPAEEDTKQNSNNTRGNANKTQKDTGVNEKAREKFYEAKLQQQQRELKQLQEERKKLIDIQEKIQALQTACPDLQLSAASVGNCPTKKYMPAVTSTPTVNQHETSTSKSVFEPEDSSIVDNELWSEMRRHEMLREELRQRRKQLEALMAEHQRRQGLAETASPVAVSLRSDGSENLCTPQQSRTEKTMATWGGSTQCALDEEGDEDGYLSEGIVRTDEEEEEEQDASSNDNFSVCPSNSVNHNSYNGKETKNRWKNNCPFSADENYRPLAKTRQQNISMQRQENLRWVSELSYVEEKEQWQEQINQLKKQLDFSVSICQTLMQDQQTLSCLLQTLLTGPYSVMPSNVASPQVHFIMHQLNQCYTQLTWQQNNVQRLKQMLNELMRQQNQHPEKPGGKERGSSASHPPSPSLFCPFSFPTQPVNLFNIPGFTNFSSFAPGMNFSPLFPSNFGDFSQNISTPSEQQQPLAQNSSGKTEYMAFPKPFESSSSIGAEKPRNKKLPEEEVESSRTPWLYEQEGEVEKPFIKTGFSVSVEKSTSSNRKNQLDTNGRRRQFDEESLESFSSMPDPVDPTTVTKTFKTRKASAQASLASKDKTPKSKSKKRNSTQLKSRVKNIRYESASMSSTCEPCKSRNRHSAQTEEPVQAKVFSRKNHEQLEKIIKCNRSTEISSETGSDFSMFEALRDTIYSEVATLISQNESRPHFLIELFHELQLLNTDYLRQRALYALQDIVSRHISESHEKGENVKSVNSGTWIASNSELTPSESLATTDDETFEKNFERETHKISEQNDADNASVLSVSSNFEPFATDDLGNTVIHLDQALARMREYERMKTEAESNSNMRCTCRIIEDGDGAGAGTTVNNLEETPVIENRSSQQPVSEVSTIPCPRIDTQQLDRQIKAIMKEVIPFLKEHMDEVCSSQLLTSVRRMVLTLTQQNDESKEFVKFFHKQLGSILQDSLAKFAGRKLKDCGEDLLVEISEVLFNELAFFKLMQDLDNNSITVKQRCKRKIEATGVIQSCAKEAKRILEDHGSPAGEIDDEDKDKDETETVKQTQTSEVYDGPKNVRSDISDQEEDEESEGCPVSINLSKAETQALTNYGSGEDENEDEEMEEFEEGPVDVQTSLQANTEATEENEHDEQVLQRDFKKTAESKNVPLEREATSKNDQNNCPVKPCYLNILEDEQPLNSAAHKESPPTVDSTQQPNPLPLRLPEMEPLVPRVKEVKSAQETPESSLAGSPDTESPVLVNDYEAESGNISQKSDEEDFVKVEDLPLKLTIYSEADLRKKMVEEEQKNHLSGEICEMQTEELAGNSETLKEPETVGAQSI
Sequence of -L1 (recombinant, BLI) (human) (Q9H0R8 whole entry): as the sequence (Q9H0R8 whole entry) above

For the substance “GABARAP (from UniProt O95166 1-117) (natural protein)”, the Kd – broadly, the equilibrium constant for the complex coming apart – with PCM1 V1956D LIR peptide was 7.72 µM.

In the case of “GABARAP (recombinant, BLI) (from UniProt O95166 1-117) (natural protein)”, the results for the Kd in test [1] and in test [2] were 2 µM and 0.05 µM, respectively.

In the test with PCM1 WT LIR peptide, “GABARAP K24Q (from UniProt O95166 1-117) (natural protein)” displayed a Kd of 16.6 µM.

In turn, “GABARAP K24Q/Y25H/Q59E/F60L (from UniProt O95166 1-117) (natural protein)” displayed a Kd in the test with PCM1 WT LIR peptide of 250 µM.

Turning to “GABARAP K24Q/Y25H/R28K (from UniProt O95166 1-117) (natural protein)”, in the test with PCM1 WT LIR peptide, the Kd is 66 µM.

“GABARAP Y25H (from UniProt O95166 1-117) (natural protein)”: in the test with PCM1 WT LIR peptide, the Kd came out at 11.5 µM.

“GABARAP-L1 (recombinant, BLI) (from UniProt Q9H0R8 1-117) (natural protein)”: the results for the Kd in [1] and in [2] were 1.6 µM and 0.048 µM, respectively.

In turn, “LC3A (from UniProt Q9H492 1-121) (natural protein)” registered a Kd with PCM1 K1957I LIR peptide of 3.93 µM.

As for “LC3C (from UniProt Q9BXW4 1-126) (natural protein)”, the Kd with FIP200 T704I LIR peptide came to 2 µM; with PCM1 K1957I LIR peptide, 0.384 µM.

“PCM1 (pericentriolar material 1), Q15154-5 1-2016” returned a percent reduction of interaction against WT GABARAP with GFP-GABARAP F60L (human) of 90%.

Regarding “PCM1 LIR peptide mutated at P1962 (X7) (BLI) (from UniProt Q15154)”, the Kd in test [3] was determined as 0.88 µM.

In the case of p62 LIR (from UniProt Q13501), in the test with LC3B (Homo sapiens), the Kd was 3.2 µM.

These data come from article PMC6499816, “Molecular determinants regulating selective binding of autophagy adapters and receptors to ATG8 proteins” (Nature Communications, 2019).
